System: IKK-phosphorylated IκBα in the IκBα/NF-κB complex
Sequence (chain, as listed by the source): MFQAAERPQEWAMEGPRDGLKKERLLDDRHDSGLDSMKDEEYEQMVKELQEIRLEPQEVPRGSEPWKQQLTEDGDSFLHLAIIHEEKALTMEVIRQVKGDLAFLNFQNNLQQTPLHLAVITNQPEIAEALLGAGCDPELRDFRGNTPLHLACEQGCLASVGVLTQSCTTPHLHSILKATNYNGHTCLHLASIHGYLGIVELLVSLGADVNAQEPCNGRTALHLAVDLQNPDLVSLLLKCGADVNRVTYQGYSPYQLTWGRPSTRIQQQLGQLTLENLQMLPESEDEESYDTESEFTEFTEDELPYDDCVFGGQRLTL

Substance: Drosophila Slimb protein, FLAG-tagged
- in vitro ubiquitination of pIκBα in the presence of E1 and E2 (UBC5C), efficiency against human and mouse β-TrCP (fold less efficient): > 10

From US20030166587
